We go through 2 substances from PMC12108596, “Functional Characterization of MIP_07528 of Mycobacterium indicus pranii for Tyrosine Phosphatase Activity Displays Sensitivity to Oxidative Inactivation and Plays a Role in Immunomodulation” (Biology, 2025).

A word on the Km: it is the concentration of substrate that gives half-maximal velocity. The kcat is the maximal rate divided by the concentration of active sites.

The test system of this data set is O=[N+]([O-])c1ccc(OP(=O)(O)O)cc1. Kind of data set: purified protein.
Setting [1] is: pH 7.5 (20 mM Tris, 150 mM NaCl), 37 °C, 2-8 mM pNPP.

As for “rMIP_07528 (rPtpB-MIP, rMIPPtpB) (Mycobacterium intracellulare ATCC 13950)”, under setting [1], the Km stood at 300 µM and the kcat amounted to 0.005 s⁻¹.

Take “rPtpB-Mtb (rMTBPtpB) (Mycobacterium tuberculosis H37Rv)”: the Km (pH 7.5, 37.0 °C) was 1010 µM.
